From FireProtDB (doi:10.1128/aem.02129-17)

B1: Lipase, P19515 (parent)
chain: MVLKQRANYLGFLIVFFTAFLVEAVPIKRQSNSTVDSLPPLIPSRTSAPSSSPSTTDPEAPAMSRNGPLPSDVETKYGMALNATSYPDSVVQAMSIDGGIRAATSQEINELTYYTTLSANSYCRTVIPGATWDCIHCDATEDLKIIKTWSTLIYDTNAMVARGDSEKTIYIVFRGSSSIRNWIADLTFVPVSYPPVSGTKVHKGFLDSYGEVQNELVATVLDQFKQYPSYKVAVTGHSLGGATALLCALDLYQREEGLSSSNLFLYTQGQPRVGDPAFANYVVSTGIPYRRTVNERDIVPHLPPAAFGFLHAGEEYWITDNSPETVQVCTSDLETSDCSNSIVPFTSVLDHLSYFGINTGLCT

Variants of: B1
Details: Rhizomucor miehei; pH 8; Thermal; DSF; sodium phosphate buffer 50 mM; structure 6QPR; whole UniProt chain shown

| Variant | Tm [°C] | change of melting temperature, mutant - wild type (higher = more stable) [°C] |
| --- | --- | --- |
| N358W | 57.2 | -2.7 |
| E324R | 59.9 | 1.2 |
| E324W | 61.4 | 2.7 |
| E324V | 64.1 | 5.4 |
| E324T | 62.5 | 3.8 |
| E324P | 61.2 | 2.5 |
| E324M | 60 | 1.3 |
| E324Y | 60.8 | 2.1 |
| Q327I | 59.5 | 2.3 |
| D332F | 58.2 | -3 |
| D332Y | 58.7 | -5.4 |
| D332L | 57.8 | -2.5 |
| D332R | 58 | -2.8 |
| D332W | 58.7 | -4.5 |
| D332P | 58.7 | -3.8 |
